Results reported in the supplement of paper PMC7877785.
± gives the uncertainty stated by the source.

Assay: self-splicing fitness, log relative to wild type (ln ratio); higher = more splicing; Tetrahymena group I intron in knt gene, E. coli kanamycin selection, DiMSum; sequences stand for … in CUCUCU…GGAGGGAAAAGUUAUCAGGCAUGCACCUGGUAGCUAGUCUUUAAACCAAUAGAUUGCAUCGGUUUAAAAGGCAAGACCGUCAAAUUGCGGGAAAGGGGUCAACAGCCGUUCAGUACCAAGUCUCAGGGGAAACUUUGAGAUGGCCUUGCAAAGGGUAUGGUAAUAAGCUGACGGACAUGGUCCUAACCACGCAGCCAAGUCCUAAGUCAACAGAUCUUCUGUUGAUAUGGAUGCAGUUCACAGACUAAAUGUCGGUCGGGGAAGAUGUAUUCUUCUCAUAAGAUAUAGUCGGACCUCUCCUUAAUGGGAGCUAGCGGAUGAAGUGAUGCAACACUGGAGCCGCUGGGAACUAAUUUGUAUGCGAAAGUAUAUUGAUUAGUUUUGGAGUACUCGUGGUCG
Procedure, shortened: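 A randomised library covering all eight P1ex-region intron nucleotides was built with the intron in the knt kanamycin-resistance gene on pET-22b(+) and held in E. coli BL21(DE3). Cells were grown overnight at 37°C or 30°C on LB agar, with or without 25 μg/mL kanamycin, plus 100 μg/mL carbenicillin, 50 μM IPTG and 0.2% rhamnose, and pooled colonies were amplicon-sequenced on an Illumina HiSeq 2500. DiMSum fitness is the error-weighted combination of wild-type-normalised replicate fold changes, kanamycin versus none.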

Row | Sequence | self-splicing fitness (ln) (30 °C) | self-splicing fitness (ln) (37 °C)
1 | CCUAAGCAAUAUUACGCAGC | -3.07 ± 0.29 | -2.46 ± 0.24
2 | ACCAAGCAAUAUUACGGCAC | -0.797 ± 0.091 | -0.913 ± 0.11
3 | CAGUAGCAAUAUUACGAGGU | – | -2.88 ± 0.34
4 | CACCAGCAAUAUUACGGCUG | -3.78 ± 0.13 | -1.29 ± 0.083
5 | CCGCAGCAAUAUUACGCAAC | -3.22 ± 0.19 | -3.07 ± 0.32
6 | AACCAGCAAUAUUACGACCC | -0.941 ± 0.1 | 0.421 ± 0.13
7 | UUCUAGCAAUAUUACGGAGA | -2.45 ± 0.29 | -2.41 ± 0.49
8 | UGACAGCAAUAUUACGGAGA | -3.83 ± 0.29 | -1.98 ± 0.15
9 | CACCAGCAAUAUUACGCCUU | -3.62 ± 0.14 | -1.72 ± 0.12
10 | CCCCAGCAAUAUUACGAAUC | -3.68 ± 0.16 | -2.49 ± 0.22
11 | UCCCAGCAAUAUUACGUCUG | -3.05 ± 0.17 | -2.85 ± 0.31
12 | AGCGAGCAAUAUUACGUGAA | -3.44 ± 0.19 | -1.23 ± 0.2
13 | UCUGAGCAAUAUUACGGUAG | -3.93 ± 0.33 | -1.67 ± 0.18
14 | CUAUAGCAAUAUUACGGUUG | -0.804 ± 0.088 | 0.0411 ± 0.1
15 | UGUUAGCAAUAUUACGAUUU | -0.79 ± 0.11 | -1.55 ± 0.14
16 | CACAAGCAAUAUUACGCGAC | -2.93 ± 0.15 | -3.22 ± 0.27
17 | GCAAAGCAAUAUUACGCUCC | -3.61 ± 0.34 | -3.03 ± 0.43
18 | ACGAAGCAAUAUUACGGUAU | -2.57 ± 0.093 | -1.27 ± 0.091
19 | CAAUAGCAAUAUUACGUUCG | -0.45 ± 0.057 | 0.556 ± 0.081
20 | CAAAAGCAAUAUUACGCGGG | -2.38 ± 0.11 | -1.87 ± 0.13
21 | UGCUAGCAAUAUUACGGGGU | -2.82 ± 0.21 | -2.09 ± 0.21
22 | UUCAAGCAAUAUUACGAGGG | -3.56 ± 0.23 | -1.91 ± 0.17
23 | CCUGAGCAAUAUUACGGAGC | -1.59 ± 0.47 | -1.9 ± 0.38
24 | GUUGAGCAAUAUUACGGACU | -3.15 ± 0.24 | -3.49 ± 0.34
25 | UUAGAGCAAUAUUACGGGUA | -3.06 ± 0.22 | -1.62 ± 0.19

Row | Sequence | self-splicing fitness (ln) (30 °C) | self-splicing fitness (ln) (37 °C)
26 | GCCCAGCAAUAUUACGCGGG | -3.71 ± 0.2 | -2.31 ± 0.22
27 | CAUAAGCAAUAUUACGGACG | 0.133 ± 0.093 | 0.568 ± 0.12
28 | GCCCAGCAAUAUUACGGGUU | -3.01 ± 0.12 | -3.4 ± 0.19
29 | ACCAAGCAAUAUUACGACCG | -1.17 ± 0.096 | -0.119 ± 0.12
30 | UUUUAGCAAUAUUACGGAAA | -1.73 ± 0.23 | -1.14 ± 0.34
31 | GAAUAGCAAUAUUACGAUCA | -1.11 ± 0.12 | 0.308 ± 0.11
32 | AAUCAGCAAUAUUACGGAUC | -0.358 ± 0.073 | 0.17 ± 0.1
33 | GGGAAGCAAUAUUACGAUUC | -0.445 ± 0.14 | -0.851 ± 0.16
34 | UUGAAGCAAUAUUACGAUCC | – | -1.38 ± 0.38
35 | GAGAAGCAAUAUUACGUCAG | -3.34 ± 0.23 | -1.35 ± 0.18
36 | UUAGAGCAAUAUUACGCUAG | -0.574 ± 0.12 | 0.349 ± 0.15
37 | UAAGAGCAAUAUUACGAUGU | -4.13 ± 0.26 | -1.82 ± 0.2
38 | UGCGAGCAAUAUUACGUCUA | -0.974 ± 0.15 | -0.453 ± 0.17
39 | UAGGAGCAAUAUUACGCUAA | – | -1.57 ± 0.41
40 | UAUAAGCAAUAUUACGUUUU | -3.44 ± 0.23 | -1.85 ± 0.15
41 | UGUUAGCAAUAUUACGCGUU | -1.38 ± 0.1 | -1.01 ± 0.11
42 | UGAGAGCAAUAUUACGCAAU | – | -3 ± 0.43
43 | CCCCAGCAAUAUUACGCAGC | -3.44 ± 0.15 | -2.84 ± 0.21
44 | CCAAAGCAAUAUUACGGCCG | -0.467 ± 0.1 | -0.508 ± 0.12
45 | UUUCAGCAAUAUUACGGGGU | -3.58 ± 0.17 | -1.68 ± 0.15
46 | GAAGAGCAAUAUUACGGACC | -1.57 ± 0.14 | -0.884 ± 0.19
47 | CCUGAGCAAUAUUACGCUUU | -1.94 ± 0.17 | -3.14 ± 0.28
48 | UUAGAGCAAUAUUACGGCCA | -1.02 ± 0.34 | 0.756 ± 0.35
49 | UCUCAGCAAUAUUACGGAGG | -4.93 ± 0.29 | -1.97 ± 0.17
